Test results as given in PMC4700190.

Columns and labels:
[1] = molecular target: CynD H71C (Bacillus pumilus); assay: SEC; Superdex 200 10/300 GL, 0.1 M MOPS pH 7.7, 0.5 ml/min; His-tag purified protein; column calibrated with a marker kit, and with wild-type B. pumilus CynD (18-mer) and P. stutzeri CynD (14-mer)
[2] = molecular target: CynD E64C (Bacillus pumilus); assay: as above
[3] = molecular target: CynD P55C (Bacillus pumilus); assay: as above
[4] = molecular target: CynD E72C (Bacillus pumilus); assay: as above
[5] = molecular target: CynD M223C (Bacillus pumilus); assay: as above
[6] = molecular target: CynD Y233C (Bacillus pumilus); assay: as above
[7] = molecular target: cyanide dihydratase from Bacillus pumilus (CynD), wild type (Bacillus pumilus); assay: as above
[8] = molecular target: CynD E235C (Bacillus pumilus); assay: as above
[9] = molecular target: CynD F57C (Bacillus pumilus); assay: as above
[10] = molecular target: CynD T66C (Bacillus pumilus); assay: as above
[11] = molecular target: CynD P63C (Bacillus pumilus); assay: as above
[12] = molecular target: CynD D232C (Bacillus pumilus); assay: as above
[13] = molecular target: CynD I224C (Bacillus pumilus); assay: as above
[14] = molecular target: CynD C225A (Bacillus pumilus); assay: as above
[15] = molecular target: CynD F59C (Bacillus pumilus); assay: as above
[16] = molecular target: CynD I60C (Bacillus pumilus); assay: as above
[17] = molecular target: CynD E229C (Bacillus pumilus); assay: as above
[18] = molecular target: CynD from Pseudomonas stutzeri (Pseudomonas stutzeri); assay: as above
[19] = molecular target: CynD Y70C (Bacillus pumilus); assay: as above
[20] = molecular target: CynD R231C (Bacillus pumilus); assay: as above
[21] = molecular target: CynD Q230C (Bacillus pumilus); assay: as above
[22] = molecular target: CynD H62C (Bacillus pumilus); assay: as above
[23] = molecular target: CynD G61C (Bacillus pumilus); assay: as above
[24] = molecular target: CynD T227C (Bacillus pumilus); assay: as above
[25] = molecular target: CynD F69C (Bacillus pumilus); assay: as above
[26] = molecular target: CynD A58C (Bacillus pumilus); assay: as above
[27] = molecular target: CynD K68C (Bacillus pumilus); assay: as above
[28] = molecular target: CynD R67C (Bacillus pumilus)
[29] = molecular target: CynD W56C (Bacillus pumilus); assay: SEC; Superdex 200 10/300 GL, 0.1 M MOPS pH 7.7, 0.5 ml/min; His-tag purified protein; column calibrated with a marker kit, and with wild-type B. pumilus CynD (18-mer) and P. stutzeri CynD (14-mer)
[30] = molecular target: CynD Y65C (Bacillus pumilus); assay: as above
[31] = molecular target: CynD L226C (Bacillus pumilus); assay: as above
[32] = molecular target: CynD F234C (Bacillus pumilus); assay: as above
[33] = molecular target: CynD E222C (Bacillus pumilus); assay: as above

Substance CynD H71C (enzyme) has a stoichiometry N [1] of 16 subunits.
Work on CynD E64C (enzyme) yielded a stoichiometry N [2] of 16 subunits.
CynD P55C (enzyme) showed a stoichiometry N [3] of 18 subunits.
CynD E72C (enzyme) was tested, and the stoichiometry N [4] was 18 subunits.
CynD M223C (enzyme) showed a stoichiometry N [5] of 18 subunits.
CynD Y233C (enzyme) showed a stoichiometry N [6] of 16 subunits.
Substance “cyanide dihydratase from Bacillus pumilus (CynD), wild type (enzyme)” has a stoichiometry N [7] of 18 subunits.
Substance CynD E235C (enzyme) has a stoichiometry N [8] of 18 subunits.
CynD F57C (enzyme) showed a stoichiometry N [9] of 14 subunits.
Substance CynD T66C (enzyme) has a stoichiometry N [10] of 16 subunits.
With CynD P63C (enzyme) the stoichiometry N [11] was 18 subunits.
CynD D232C (enzyme) showed a stoichiometry N [12] of 18 subunits.
CynD I224C (enzyme) showed a stoichiometry N [13] of 18 subunits.
With CynD C225A (enzyme) the stoichiometry N [14] was 18 subunits.
CynD F59C (enzyme) showed a stoichiometry N [15] of 18 subunits.
CynD I60C (enzyme) showed a stoichiometry N [16] of 18 subunits.
CynD E229C (enzyme) was tested, and the stoichiometry N [17] was 18 subunits.
For CynD from Pseudomonas stutzeri (enzyme), the stoichiometry N [18] was 14 subunits.
CynD Y70C (enzyme) gave a stoichiometry N [19] of 16 subunits.
CynD R231C (enzyme) was tested, and the stoichiometry N [20] was 18 subunits.
CynD Q230C (enzyme) gave a stoichiometry N [21] of 18 subunits.
CynD H62C (enzyme) showed a stoichiometry N [22] of 18 subunits.
With CynD G61C (enzyme) the stoichiometry N [23] was 14 subunits.
With CynD T227C (enzyme) the stoichiometry N [24] was 18 subunits.
CynD F69C (enzyme) gave a stoichiometry N [25] of 16 subunits.
In the case of CynD A58C (enzyme), the stoichiometry N [26] is reported as 18 subunits.
Work on CynD K68C (enzyme) yielded a stoichiometry N [27] of 18 subunits.
Substance CynD R67C (enzyme) has an activity of the purified protein relative to wild type, picric acid cyanide assay [28] of less than 10%.
For CynD W56C (enzyme), the stoichiometry N [29] was 16 subunits.
Work on CynD Y65C (enzyme) yielded a stoichiometry N [30] of 18 subunits.
CynD L226C (enzyme) was tested, and the stoichiometry N [31] was 18 subunits.
For CynD F234C (enzyme), the stoichiometry N [32] was 16 subunits.
CynD E222C (enzyme) gave a stoichiometry N [33] of 18 subunits.
